In US5602009, “Dominant negative chimeras of the steroid/thyroid superfamily of receptors” (The Salk Institute for Biological Studies):

Experiments:
[1] = tested on: glucocorticoid receptor (hGR) (Homo sapiens); test: cell_activity; conditions: dexamethasone 1e-7 M, MTV-Luc in CV-1
[2] = molecular target: T1, retinoic acid receptor alpha (RARalpha) (UniProt P10276 P10276:1-462); test: cell_activity; 100 nM RA, delta-MTV-TREp-CAT in CV-1
T1 sequence: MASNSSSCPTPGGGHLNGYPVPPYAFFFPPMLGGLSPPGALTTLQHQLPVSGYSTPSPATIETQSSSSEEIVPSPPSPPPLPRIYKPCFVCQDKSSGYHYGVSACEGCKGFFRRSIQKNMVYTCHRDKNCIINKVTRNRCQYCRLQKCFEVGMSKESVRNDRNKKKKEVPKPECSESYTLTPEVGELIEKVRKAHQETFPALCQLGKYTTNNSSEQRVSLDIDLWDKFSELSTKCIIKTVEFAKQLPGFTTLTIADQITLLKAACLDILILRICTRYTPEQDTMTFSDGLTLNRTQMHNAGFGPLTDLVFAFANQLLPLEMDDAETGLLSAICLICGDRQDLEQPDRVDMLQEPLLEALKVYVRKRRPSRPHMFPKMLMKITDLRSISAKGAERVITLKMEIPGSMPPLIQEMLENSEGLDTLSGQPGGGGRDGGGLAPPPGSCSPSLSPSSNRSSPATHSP

[3] = molecular target: T2, thyroid hormone receptor alpha (rTRalpha) (Rattus norvegicus, UniProt P63059-2 P63059-2:1-410); test: cell_activity; T3 100 nM stimulation of tk-TREp-CAT in CV-1; 80% decrease of basal activity without hormone; conditions: tags: RSV expression vector RS-rTRalpha in CV-1 cells
T2 sequence: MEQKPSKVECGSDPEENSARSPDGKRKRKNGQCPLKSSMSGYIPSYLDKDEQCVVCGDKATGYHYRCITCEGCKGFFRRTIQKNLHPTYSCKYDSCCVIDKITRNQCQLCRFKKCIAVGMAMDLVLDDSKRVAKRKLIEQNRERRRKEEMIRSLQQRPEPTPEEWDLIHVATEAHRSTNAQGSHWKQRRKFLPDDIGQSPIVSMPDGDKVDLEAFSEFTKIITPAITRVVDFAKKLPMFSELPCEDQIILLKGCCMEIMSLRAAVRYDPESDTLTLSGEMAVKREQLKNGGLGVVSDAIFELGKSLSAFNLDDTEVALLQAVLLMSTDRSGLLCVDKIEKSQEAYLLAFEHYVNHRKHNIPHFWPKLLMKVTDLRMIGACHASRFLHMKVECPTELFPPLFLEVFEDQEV

Work on “mouse mammary tumor virus (MTV) promoter” yielded an activity [1] of 3000 fold.

B1: TREp palindromic thyroid response element (dsDNA)
DNA 1: TCAGGTCATGACCTGA
DNA 2: TCAGGTCATGACCTGA
Work on B1 yielded an activity [2] of 25 fold and an activity [3] of 20 fold.
